Experimental data: paper PMC3200332

Target: pyruvate ferredoxin oxidoreductase (POR) from P. furiosus (Pyrococcus furiosus)

Row | POR-linked H2 evolution activity (electrons from pyruvate via POR) | POR-linked H2 evolution activity (electrons from pyruvate via POR; ferredoxin had no significant effect) | Substance
1 | -0 U mg^−1 |  | native Pyrococcus furiosus soluble hydrogenase I (SHI), heterotetramer PF0891-PF0894 (from UniProt Q8U2E5 1-367; Q8U2E5 1-367) (complex)
2 |  | 0.2 U mg^−1 | OE-SHI Dimer, heterodimeric form of P. furiosus soluble hydrogenase I (His9-PF0893 + PF0894) (from UniProt Q8U2E5 1-367) (complex)
